In the supplement of paper PMC10567573:
± gives the standard deviation.

Assay: protein stability index of a GFP-peptide fusion (GPS, HEK-293T) (PSI 1-6); higher = more stable
[1] = treatment: DMSO, c terminus: a fixed tail appended
[2] = treatment: MLN4924 1 uM, 8 h, c terminus: a fixed tail appended
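Also: 24-mer peptide tiles fused after GFP, lentivirally expressed, FACS-sorted into six equal bins by GFP/DsRed ratio, decoded by Illumina sequencing, PSI is the read-weighted mean bin number.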

Sequence	protein stability index (treatment: DMSO, c terminus: native)	protein stability index (treatment: MLN4924 1 uM, 8 h, c terminus: native)	protein stability index [1]	protein stability index [2]
RAEKEACQREKELPAAVHPFHFV [ZBED2]	4.87 ± 0.39	4.8 ± 0.34	–	–
KYVVSGFDVDHGICIMDAENITTV [WDR88]	–	–	2.28 ± 0.32	2.25 ± 0.25
DTVTEVTARMEMLIEELYAFMPAR [CBY2]	–	–	2.38 ± 0.25	2.47 ± 0.48
GADCGIQWWNAVFIMLLIGIVLPV [LYSMD4]	–	–	2.88 ± 0.1	3.03 ± 0.45
GHRLAQKLQGLENWGQDPGVSANA [PBXIP1]	–	–	3.82 ± 0.2	3.87 ± 0.3
ACRFTKCLRVGMLKEGVRLDRVRG [ESRRA]	–	–	2.31 ± 0.17	2.25 ± 0.19
KIQLRLAGQKRKHSEGRVEVYYDG [LOXL2]	–	–	3.09 ± 0.33	3.88 ± 0.67
WKFPVPVLKTSRSTPLSPAYISLV [KLHL13]	–	–	2.48 ± 0.42	2.26 ± 0.1
CHLCNYACRRRDALTGHLRTHSVI [IKZF1]	–	–	3.06 ± 0.26	3.15 ± 0.4
ENEEMEQPMQNGEEDRPLGGGEGH [BEX3]	–	–	5.42 ± 0.15	5.41 ± 0.2
QLPPASRCVLVFEQVRFLMKSYSF [SOAT2]	–	–	2.71 ± 0.67	1.95 ± 0.1
EQVAQLKQKVMTHVSNGCQLLLGV [JUNB]	–	–	2.33 ± 0.27	2.12 ± 0.13
PPPAYEPPAPAPLPPPSAPSLQPS [SCAMP3]	–	–	5.04 ± 0.18	4.97 ± 0.11
HSIINALKAKLQMTEAALALSEQK [LRRC45]	–	–	2.63 ± 0.087	2.74 ± 0.27
GRGAFGEVRLVQKKDTGHIYAMKI [STK38L]	–	–	2.09 ± 0.25	2.43 ± 0.49
KFENLCKLMKEILDKKVEKVTISN [HSP90AB1]	–	–	–	2.75 ± 0.38
EDLLAKEKDNSRRMLTDKEREMAE [LMNB1]	–	–	5.6 ± 0.31	5.65 ± 0.28
VKMDSSIQPGPFRAVLKYLYTGEL [RHOBTB2]	–	–	2.32 ± 0.96	2.02 ± 0.45
KVVECLDHARGKSQVALKIIRNVG [CLK3]	–	–	2.24 ± 0.21	2.22 ± 0.36
NQACKLLSDDYEQVRSAAVQLIWV [INTS4]	–	–	2.62 ± 0.29	2.59 ± 0.36
EKSHQVLAQLLDTLLAIGTKLPEN [INTS4]	–	–	3.14 ± 0.82	3.2 ± 0.86
PHLMQEHMGTNVIVANTMPTHLSN [HNF4A]	–	–	3.83 ± 0.19	3.97 ± 0.24
TSLLDLISIPITGDTLRTFSLVLV [DYNC2LI1]	–	–	2.76 ± 0.89	2.51 ± 0.57

Sequence	protein stability index (treatment: DMSO, c terminus: native)	protein stability index (treatment: MLN4924 1 uM, 8 h, c terminus: native)	protein stability index [1]	protein stability index [2]
PVLHPSEERAAPVLSCEAATQTER [FAM189A2]	–	–	5.47 ± 0.27	5.44 ± 0.13
MQAEAEAASVRMRGEAEAFAIGAR [FLOT1]	–	–	4.62 ± 0.31	4.75 ± 0.31
DFGSNCRFSHMSERDLQELSIQVE [ZMAT5]	–	–	3.05 ± 0.49	2.91 ± 0.28
SILFGHENRVSTLRVSPDGTAFCS [GNB5]	–	–	2.88 ± 0.41	3.02 ± 0.13
MMPLAEAGALAQGGGPSATEWACI [C6orf223]	–	–	3.65 ± 0.34	3.52 ± 0.25
ATGEVLGQFYLDLYPREGKYNHAA [NLN]	–	–	2.91 ± 0.83	2.73 ± 0.27
RHTLQKLTCEFNNNHESLDEELHL [FBXO39]	–	–	4.38 ± 0.21	4.56 ± 0.3
EPDALDDSLTSLQWLQEFSILNAK [FOXJ1]	–	–	3.75 ± 0.21	3.65 ± 0.11
FGNRIKRVKLISNKGTETDNDPSC [PHTF1]	–	–	4.06 ± 0.29	4.05 ± 0.42
AGLVHVKQCIVAHPVNPPYYIPLV [CRYL1]	–	–	2.46 ± 0.33	2.36 ± 0.54
MEGLEENGGVVQVGELLPCKICGR [ZC2HC1A]	–	–	4.13 ± 0.21	4.26 ± 0.48
RSQHARKETEFLRLKRTRLGLDDF [STK38L]	–	–	2.95 ± 0.28	3.04 ± 0.44
FERIMKYERLARILLQEIPIRSIS [FBXO39]	–	–	2.73 ± 0.39	2.35 ± 0.4
RLEQEIATYRRLLEGEDAHLSSQQ [KRT16]	–	–	3.95 ± 0.097	4.21 ± 0.18
KRIKVPDYKDRSVFGVPLTVNVQR [DLC1]	–	–	3.02 ± 0.42	3.09 ± 0.35
KRGPSSRSGGPPPKKSAPSAVARS [RBMY1A1]	–	–	4.47 ± 0.12	4.78 ± 0.39
CYKGHKEIAQYLLEKGADVNRKSV [FEM1C]	–	–	3.1 ± 0.14	3.38 ± 0.18
THFTFKDLHFKMFDVGGQRSERKK [GNAI1]	–	–	2.83 ± 0.33	2.93 ± 0.15
CKKAFREGSRKSSRVKGSAPEIDP [KMT2E]	–	–	4.46 ± 0.15	4.48 ± 0.15
LHTAREFSEEDEEETTSQDWGTPR [RTN2]	–	–	5.4 ± 0.27	5.46 ± 0.23
NTNNLTFLMDLPSAGRSMPEASDQ [RNF180]	–	–	4.28 ± 0.14	4.39 ± 0.2
SNHSAQDSAVENLLLLSKAKLVPS [IKZF1]	–	–	3.81 ± 0.22	3.95 ± 0.32
EDSESLRIKEVEHMTRHLEESEKA [LRRC45]	–	–	5.5 ± 0.23	5.51 ± 0.2

Sequence	protein stability index (treatment: DMSO, c terminus: native)	protein stability index (treatment: MLN4924 1 uM, 8 h, c terminus: native)	protein stability index [1]	protein stability index [2]
KVRQLERDNAELENLIRERSQQQE [KRT33B]	–	–	5.11 ± 0.3	5.13 ± 0.28
DSFLVALDMDDGTLSFIVDGQYMG [SPSB1]	–	–	2.64 ± 0.63	2.74 ± 0.41
HLTRGRKMAHVIAACLYLVCRTEG [BRF1]	–	–	2.53 ± 0.99	2.6 ± 0.48
EDAHLTQYKKEPVTTRQVRTIVEE [KRT17]	–	–	5.01 ± 0.37	5.01 ± 0.19
YTGIVLLRCRKEFYQLVWSALPFI [POP5]	–	–	3.12 ± 0.41	3.05 ± 0.47
EVVTPDNMCMGRTSRGKLGGQDSF [ETS1]	–	–	3.71 ± 0.16	3.87 ± 0.2
TGQPLPQSIQQAMRYLRNHCLDQV [DLC1]	–	–	2.36 ± 0.093	2.4 ± 0.22
SWGIAGETELALVKESGERKVTDS [DLC1]	–	–	5.14 ± 0.3	5.46 ± 0.19
IESERALISQCGKPVVNVSYRPAY [DUSP5]	–	–	2.6 ± 0.5	2.82 ± 0.13
PGKETLESALIALDSEKPKKLRFH [EHMT1]	–	–	4.06 ± 0.24	4.11 ± 0.45
CERVVINVSGLRFETQMKTLAQFP [KCNA4]	–	–	2.55 ± 0.42	2.51 ± 0.77
ALLHQAETLQPSVWFGGREHVLMF [TMEM175]	–	–	2.28 ± 0.51	1.95 ± 0.5
LEISDQEVLEWYTAKDFIVGKSLT [EFHC1]	–	–	3.06 ± 0.22	2.92 ± 0.3
KAFSRSSGLFNHRGIHNIQKRYHC [ZSCAN9]	–	–	2.63 ± 0.39	2.45 ± 0.14
PECTRCGHGIVGTIVKARDKLYHP [PDLIM4]	–	–	2.35 ± 0.13	2.56 ± 0.21
TSLFMTPLDVVKVRLQSQRPSMAS [SLC25A39]	–	–	2.69 ± 0.34	3.02 ± 0.19
SASSDEPYARIQQSRRQCHAEEDQ [SMIM2]	–	–	5.49 ± 0.17	5.63 ± 0.2
MSYSCCLPSLGCRTSCSSRPCVPP [KRT34]	–	–	2.22 ± 0.17	2.37 ± 0.4
RRSMKRKALFTCPFNGDCRITKDN [VDR]	–	–	3.29 ± 0.45	3.48 ± 0.3
FFIQTVRPKDTVMCYRVRWEEAAP [MYORG]	–	–	2.62 ± 0.73	2.56 ± 0.92
CASDEGEVIVFGGCANNLLVHHRA [KLHDC2]	–	–	2.6 ± 0.35	2.27 ± 0.29
RQAIFPDTWTLTEEHGLQQERPRP [PXN]	–	–	4.43 ± 0.25	4.25 ± 0.28
EQIRFVMKAHSFVRENVPRVLNSA [SOAT1]	–	–	2.58 ± 0.46	2.48 ± 0.41

Sequence	protein stability index (treatment: DMSO, c terminus: native)	protein stability index (treatment: MLN4924 1 uM, 8 h, c terminus: native)	protein stability index [1]	protein stability index [2]
GYGRAPGGLSLHDYKLLKPSLAVN [JUNB]	–	–	2.92 ± 0.035	2.88 ± 0.73
AAKPAASITSKPATLTTTSATSKL [ZNF207]	–	–	4.6 ± 0.12	4.6 ± 0.17
STSDSDLTCDSSTSSSDDDEEVSG [C18orf25]	–	–	5.22 ± 0.21	5.28 ± 0.13
ACTMDQARGLDDAAARGGQCPGLG [ZBED3]	–	–	4.54 ± 0.18	4.51 ± 0.14
QYFTNRLDMSQNVSLVTAELSKDA [SLC29A1]	–	–	4.2 ± 0.21	4.25 ± 0.24
DNRCKLFDSPSLCSSSTRSVLKRP [CDC25A]	–	–	3.48 ± 0.2	3.64 ± 0.28
PTPSTPRPTPQDWLHRRAQILEIL [ADAMTS4]	–	–	2.97 ± 0.23	2.98 ± 0.25
CSSPSVVASLPLDQSDEGSSSQKE [MAGEA10]	–	–	5.36 ± 0.74	5.49 ± 0.1
LKDNPLDPVLAKVAGDCLDEKQCK [LRRC59]	–	–	5.13 ± 0.44	5.19 ± 0.27
TMAAKKNRQSSDKQNGRVAKVKGH [C18orf25]	–	–	4.53 ± 0.25	4.58 ± 0.29
IEKEEQEKKRKEEEERRRREEEER [ACBD3]	–	–	5.48 ± 0.21	5.66 ± 0.097
MSRMINKYKRRRFQKTKNLLTGET [CLPTM1]	–	–	3.05 ± 0.32	3.26 ± 0.35
APSLSGKGNPEEEDVDTSQVLYEW [CTNNB1]	–	–	5.14 ± 0.28	5.15 ± 0.18
LIDYKSYMDTKLLVARFLEQSSCT [FAM189A2]	–	–	2.38 ± 0.091	2.25 ± 0.19
EEVDTGAVNLIESGACGAFVHGLE [INTS4]	–	–	4.34 ± 0.39	4.85 ± 0.46
AAGTHDGSVYFWATPRQVPSLQHL [WSB1]	–	–	2.52 ± 0.22	2.64 ± 0.21
LLSQEKLQEQHLSSPQGVQLDIAS [BCL2L13]	–	–	4.45 ± 0.14	4.36 ± 0.15
VLRLCCKKLKIFAMPMQDIKMILK [PRAME]	–	–	2.81 ± 0.38	2.73 ± 0.52
RTERVEQAFRAIDRGDYYLEGYRD [PCMTD1]	–	–	3.77 ± 0.17	3.82 ± 0.17
TTPIEEVKGLFKSENCPKVISCEF [LARP4]	–	–	2.9 ± 0.2	2.82 ± 0.36
